The numbers were not newly measured in paper PMC12394151, which cites them from elsewhere.

The target of this data set is IL-6R (Homo sapiens) (UniProt P08887). In words: BLI. As to conditions: cited from earlier work.
IL-6R (Homo sapiens), sequence (P08887 20-355): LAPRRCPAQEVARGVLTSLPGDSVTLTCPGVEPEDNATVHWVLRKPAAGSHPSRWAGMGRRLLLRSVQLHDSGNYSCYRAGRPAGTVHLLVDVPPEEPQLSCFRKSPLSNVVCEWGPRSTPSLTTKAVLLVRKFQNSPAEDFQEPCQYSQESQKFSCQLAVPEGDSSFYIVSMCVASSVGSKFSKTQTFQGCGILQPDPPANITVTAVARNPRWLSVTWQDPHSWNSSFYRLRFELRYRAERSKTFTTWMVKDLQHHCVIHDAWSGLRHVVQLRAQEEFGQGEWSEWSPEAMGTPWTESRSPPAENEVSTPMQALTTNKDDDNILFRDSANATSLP

By Kd is commonly meant the concentration at which binding is half-saturated. Turning to Tocilizumab, the dissociation constant Kd was 38.8 nM.
